Experimental findings from patent US20150210998 are described below.

Data set [1] has as its target UbcH7˜125I-ubiquitin thioester, P68036.

Sequence of UbcH7˜125I-ubiquitin thioester, P68036 (P68036 whole entry, looked up): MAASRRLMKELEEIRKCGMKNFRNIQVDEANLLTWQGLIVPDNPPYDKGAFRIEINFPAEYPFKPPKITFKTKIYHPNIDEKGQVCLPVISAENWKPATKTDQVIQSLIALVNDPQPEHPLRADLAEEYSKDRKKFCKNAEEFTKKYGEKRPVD

B1: E6AP ligase Hect domain (GST removed by thrombin) (protein)
chain: INEPLNEVLEMDKDYTFFKVETENKFSFMTCPFILNAVTKNLGLYYDNRIRMYSERRITVLYSLVQGQQLNPYLRLKVRRDHIIDDALVRLEMIAMENPADLKKQLYVEFEGEQGVDEGGVSKEFFQLVVEEIFNPDIGMFTYDESTKLFWFNPSSFETEGQFTLIGIVLGLAIYNNCILDVHFPMVVYRKLMGKKGTFRDLGDSHPVLYQSLKDLLEYEGNVEDDMMITFQISQTDLFGNPMMYDLKENGDKIPITNENRKEFVNLYSDYILNKSVEKQFKAFRRGFHMVTNESPLKYLFRPEEIELLICGSRNLDFQALEETTEYDGGYTRDSVLIREFWEIVHSFTDEQKRLFLQFTTGTDRAPVGGLGKLKMIIAKNGPDTERLPTSHTCFNVLLLPEY
For B1, the Km- in data set [1] came out at 0.091 µM.

B2: GST-E6AP ligase Hect domain (protein)
chain: INEPLNEVLEMDKDYTFFKVETENKFSFMTCPFILNAVTKNLGLYYDNRIRMYSERRITVLYSLVQGQQLNPYLRLKVRRDHIIDDALVRLEMIAMENPADLKKQLYVEFEGEQGVDEGGVSKEFFQLVVEEIFNPDIGMFTYDESTKLFWFNPSSFETEGQFTLIGIVLGLAIYNNCILDVHFPMVVYRKLMGKKGTFRDLGDSHPVLYQSLKDLLEYEGNVEDDMMITFQISQTDLFGNPMMYDLKENGDKIPITNENRKEFVNLYSDYILNKSVEKQFKAFRRGFHMVTNESPLKYLFRPEEIELLICGSRNLDFQALEETTEYDGGYTRDSVLIREFWEIVHSFTDEQKRLFLQFTTGTDRAPVGGLGKLKMIIAKNGPDTERLPTSHTCFNVLLLPEY
In the case of B2, the Km- in data set [1] turned out to be 0.089 µM.

B3: GST-E6APK688A (protein)
chain: MATACKRSGEPQSDDIEASRMKRAAAKHLIERYYHQLTEGCGNEACTNEFCASCPTFLRMDNNAAAIKALELYKINAKLCDPHPSKKGASSAYLENSKGAPNNSCSEIKMNKKGARIDFKDVTYLTEEKVYEILELCREREDYSPLIRVIGRVFSSAEALVQSFRKVKQHTKEELKSLQAKDEDKDEDEKEKAACSAAAMEEDSEASSSRIGDSSQGDNNLQKLGPDDVSVDIDAIRRVYTRLLSNEKIETAFLNALVYLSPNVECDLTYHNVYSRDPNYLNLFIIVMENRNLHSPEYLEMALPLFCKAMSKLPLAAQGKLIRLWSKYNADQIRRMMETFQQLITYKVISNEFNSRNLVNDDDAIVAASKCLKMVYYANVVGGEVDTNHNEEDDEEPIPESSELTLQELLGEERRNKKGPRVDPLETELGVKTLDCRKPLIPFEEFINEPLNEVLEMDKDYTFFKVETENKFSFMTCPFILNAVTKNLGLYYDNRIRMYSERRITVLYSLVQGQQLNPYLRLKVRRDHIIDDALVRLEMIAMENPADLKKQLYVEFEGEQGVDEGGVSKEFFQLVVEEIFNPDIGMFTYDESTKLFWFNPSSFETEGQFTLIGIVLGLAIYNNCILDVHFPMVVYRKLMGKKGTFRDLGDSHPVLYQSLKDLLEYEGNVEDDMMITFQISQTDLFGNPMMYDLKENGDKIPITNENRAEFVNLYSDYILNKSVEKQFKAFRRGFHMVTNESPLKYLFRPEEIELLICGSRNLDFQALEETTEYDGGYTRDSVLIREFWEIVHSFTDEQKRLFLQFTTGTDRAPVGGLGKLKMIIAKNGPDTERLPTSHTCFNVLLLPEYSSKEKLKERLLKAITYAKGFGML
Take B3: the Km- in data set [1] amounted to 0.039 µM.

B4: GST-E6APR626A (protein)
chain: MATACKRSGEPQSDDIEASRMKRAAAKHLIERYYHQLTEGCGNEACTNEFCASCPTFLRMDNNAAAIKALELYKINAKLCDPHPSKKGASSAYLENSKGAPNNSCSEIKMNKKGARIDFKDVTYLTEEKVYEILELCREREDYSPLIRVIGRVFSSAEALVQSFRKVKQHTKEELKSLQAKDEDKDEDEKEKAACSAAAMEEDSEASSSRIGDSSQGDNNLQKLGPDDVSVDIDAIRRVYTRLLSNEKIETAFLNALVYLSPNVECDLTYHNVYSRDPNYLNLFIIVMENRNLHSPEYLEMALPLFCKAMSKLPLAAQGKLIRLWSKYNADQIRRMMETFQQLITYKVISNEFNSRNLVNDDDAIVAASKCLKMVYYANVVGGEVDTNHNEEDDEEPIPESSELTLQELLGEERRNKKGPRVDPLETELGVKTLDCRKPLIPFEEFINEPLNEVLEMDKDYTFFKVETENKFSFMTCPFILNAVTKNLGLYYDNRIRMYSERRITVLYSLVQGQQLNPYLRLKVRRDHIIDDALVRLEMIAMENPADLKKQLYVEFEGEQGVDEGGVSKEFFQLVVEEIFNPDIGMFTYDESTKLFWFNPSSFETEGQFTLIGIVLGLAIYNNCILDVHFPMVVYRKLMGKKGTFADLGDSHPVLYQSLKDLLEYEGNVEDDMMITFQISQTDLFGNPMMYDLKENGDKIPITNENRKEFVNLYSDYILNKSVEKQFKAFRRGFHMVTNESPLKYLFRPEEIELLICGSRNLDFQALEETTEYDGGYTRDSVLIREFWEIVHSFTDEQKRLFLQFTTGTDRAPVGGLGKLKMIIAKNGPDTERLPTSHTCFNVLLLPEYSSKEKLKERLLKAITYAKGFGML
On to B4, for which, in data set [1], the Km- came out at 0.15 µM. Further, the “fold decrease in kcat of polyubiquitin chain formation” value (from here on “fold decrease in kcat”) with Q05086 is listed as “decreased kcat 155-fold”.

B5: GST-E6APF727D (protein)
chain: MATACKRSGEPQSDDIEASRMKRAAAKHLIERYYHQLTEGCGNEACTNEFCASCPTFLRMDNNAAAIKALELYKINAKLCDPHPSKKGASSAYLENSKGAPNNSCSEIKMNKKGARIDFKDVTYLTEEKVYEILELCREREDYSPLIRVIGRVFSSAEALVQSFRKVKQHTKEELKSLQAKDEDKDEDEKEKAACSAAAMEEDSEASSSRIGDSSQGDNNLQKLGPDDVSVDIDAIRRVYTRLLSNEKIETAFLNALVYLSPNVECDLTYHNVYSRDPNYLNLFIIVMENRNLHSPEYLEMALPLFCKAMSKLPLAAQGKLIRLWSKYNADQIRRMMETFQQLITYKVISNEFNSRNLVNDDDAIVAASKCLKMVYYANVVGGEVDTNHNEEDDEEPIPESSELTLQELLGEERRNKKGPRVDPLETELGVKTLDCRKPLIPFEEFINEPLNEVLEMDKDYTFFKVETENKFSFMTCPFILNAVTKNLGLYYDNRIRMYSERRITVLYSLVQGQQLNPYLRLKVRRDHIIDDALVRLEMIAMENPADLKKQLYVEFEGEQGVDEGGVSKEFFQLVVEEIFNPDIGMFTYDESTKLFWFNPSSFETEGQFTLIGIVLGLAIYNNCILDVHFPMVVYRKLMGKKGTFRDLGDSHPVLYQSLKDLLEYEGNVEDDMMITFQISQTDLFGNPMMYDLKENGDKIPITNENRKEFVNLYSDYILNKSVEKQDKAFRRGFHMVTNESPLKYLFRPEEIELLICGSRNLDFQALEETTEYDGGYTRDSVLIREFWEIVHSFTDEQKRLFLQFTTGTDRAPVGGLGKLKMIIAKNGPDTERLPTSHTCFNVLLLPEYSSKEKLKERLLKAITYAKGFGML
For the protein B5, in data set [1], the Km- is 0.072 µM. Besides, the “fold decrease in kcat” value with Q05086 was 62-fold decrease in kcat.

B6: GST-E6APD543A (protein)
chain: MATACKRSGEPQSDDIEASRMKRAAAKHLIERYYHQLTEGCGNEACTNEFCASCPTFLRMDNNAAAIKALELYKINAKLCDPHPSKKGASSAYLENSKGAPNNSCSEIKMNKKGARIDFKDVTYLTEEKVYEILELCREREDYSPLIRVIGRVFSSAEALVQSFRKVKQHTKEELKSLQAKDEDKDEDEKEKAACSAAAMEEDSEASSSRIGDSSQGDNNLQKLGPDDVSVDIDAIRRVYTRLLSNEKIETAFLNALVYLSPNVECDLTYHNVYSRDPNYLNLFIIVMENRNLHSPEYLEMALPLFCKAMSKLPLAAQGKLIRLWSKYNADQIRRMMETFQQLITYKVISNEFNSRNLVNDDDAIVAASKCLKMVYYANVVGGEVDTNHNEEDDEEPIPESSELTLQELLGEERRNKKGPRVDPLETELGVKTLDCRKPLIPFEEFINEPLNEVLEMDKDYTFFKVETENKFSFMTCPFILNAVTKNLGLYYDNRIRMYSERRITVLYSLVQGQQLNPYLRLKVRRDHIIDDALVRLEMIAMENPADLKKQLYVEFEGEQGVAEGGVSKEFFQLVVEEIFNPDIGMFTYDESTKLFWFNPSSFETEGQFTLIGIVLGLAIYNNCILDVHFPMVVYRKLMGKKGTFRDLGDSHPVLYQSLKDLLEYEGNVEDDMMITFQISQTDLFGNPMMYDLKENGDKIPITNENRKEFVNLYSDYILNKSVEKQFKAFRRGFHMVTNESPLKYLFRPEEIELLICGSRNLDFQALEETTEYDGGYTRDSVLIREFWEIVHSFTDEQKRLFLQFTTGTDRAPVGGLGKLKMIIAKNGPDTERLPTSHTCFNVLLLPEYSSKEKLKERLLKAITYAKGFGML
On to B6, for which the Km- in data set [1] was 0.54 µM.

B7: GST-E6APY533A (protein)
chain: MATACKRSGEPQSDDIEASRMKRAAAKHLIERYYHQLTEGCGNEACTNEFCASCPTFLRMDNNAAAIKALELYKINAKLCDPHPSKKGASSAYLENSKGAPNNSCSEIKMNKKGARIDFKDVTYLTEEKVYEILELCREREDYSPLIRVIGRVFSSAEALVQSFRKVKQHTKEELKSLQAKDEDKDEDEKEKAACSAAAMEEDSEASSSRIGDSSQGDNNLQKLGPDDVSVDIDAIRRVYTRLLSNEKIETAFLNALVYLSPNVECDLTYHNVYSRDPNYLNLFIIVMENRNLHSPEYLEMALPLFCKAMSKLPLAAQGKLIRLWSKYNADQIRRMMETFQQLITYKVISNEFNSRNLVNDDDAIVAASKCLKMVYYANVVGGEVDTNHNEEDDEEPIPESSELTLQELLGEERRNKKGPRVDPLETELGVKTLDCRKPLIPFEEFINEPLNEVLEMDKDYTFFKVETENKFSFMTCPFILNAVTKNLGLYYDNRIRMYSERRITVLYSLVQGQQLNPYLRLKVRRDHIIDDALVRLEMIAMENPADLKKQLAVEFEGEQGVDEGGVSKEFFQLVVEEIFNPDIGMFTYDESTKLFWFNPSSFETEGQFTLIGIVLGLAIYNNCILDVHFPMVVYRKLMGKKGTFRDLGDSHPVLYQSLKDLLEYEGNVEDDMMITFQISQTDLFGNPMMYDLKENGDKIPITNENRKEFVNLYSDYILNKSVEKQFKAFRRGFHMVTNESPLKYLFRPEEIELLICGSRNLDFQALEETTEYDGGYTRDSVLIREFWEIVHSFTDEQKRLFLQFTTGTDRAPVGGLGKLKMIIAKNGPDTERLPTSHTCFNVLLLPEYSSKEKLKERLLKAITYAKGFGML
As to B7, in data set [1], the Km- was 0.04 µM. The “fold decrease in kcat” value with Q05086 is “decreased kcat 10-fold”.
